Assay results reported in US8877206B2, “Stimulation of an immune response by cationic lipids” (PDS Biotechnology Corporation, priority 2007, dated 2014).
Ends that are not written are not given here.

Experiments:
[1] = Peptide entrapment efficiency in DOTAP liposomes (LavaPep); assay type: physicochemical; conditions: molar ratio lipopeptide: DOTAP = 1:40, mean±SD (n=3)
Method: Cationic lipid/antigen complexes were prepared as described above. Peptide encapsulation efficiency was determined by the percentage of the liposome-bound peptide using LavaPep™ peptide quantification kit (commercially available from Fluorotechnics of Sydney, Australia). Since unincorporated lipopeptide aggregated and could not pass the exclusion filter, the incorporated lipopeptide was measured as the amount associated with the extruded liposomes in the presence of 1% SDS and reported as the mean±SD (n=3). For water-soluble peptide such as native E7 and KSS-E7, the unbound peptide was separated from the complex by a Microcon® centrifugal filtration device (commercially available from Millipore of Bedford, Mass.). The concentration of the unbound peptide was measured using LavaPep™ according to the manufacturer's instruction.

[2] = target: T1, H-2K^b molecules on RMA-S cells (Mus musculus, UniProt P01901); assay: MHC class I binding on RMA-S cells, H-2K^b; assay type: cell-based; conditions: peptide 10 μM
T1 construct: endogenous in cells; host or cells: RMA-S mouse lymphoma cells
T1 sequence (P01901 22-369): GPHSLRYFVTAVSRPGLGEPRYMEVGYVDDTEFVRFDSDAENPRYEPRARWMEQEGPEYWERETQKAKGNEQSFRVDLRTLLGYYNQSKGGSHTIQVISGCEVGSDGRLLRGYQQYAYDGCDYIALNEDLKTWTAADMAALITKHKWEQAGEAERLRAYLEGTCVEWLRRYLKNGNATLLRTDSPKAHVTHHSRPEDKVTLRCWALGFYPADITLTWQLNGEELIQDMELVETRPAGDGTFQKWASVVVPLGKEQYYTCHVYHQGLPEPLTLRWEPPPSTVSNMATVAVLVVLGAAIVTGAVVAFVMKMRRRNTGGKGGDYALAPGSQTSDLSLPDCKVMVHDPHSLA
T1 sequence (P01887 21-119 partner): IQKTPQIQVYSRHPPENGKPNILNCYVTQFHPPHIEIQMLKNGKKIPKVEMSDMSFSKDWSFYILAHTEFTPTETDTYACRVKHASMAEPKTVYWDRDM

[3] = target: T2, H-2D^b molecules on RMA-S cells (Mus musculus, UniProt P01899); assay: MHC class I binding on RMA-S cells, H-2D^b; assay type: cell-based; conditions: peptide 10 μM, overnight 27° C. then 2 h 37° C.; FIG. 13
T2 construct: it caused a four-fold up-regulation of H-2D^b molecules on RMA-S cells compared to the control; endogenous in cells; host or cells: RMA-S mouse lymphoma cells
T2 sequence (P01899 25-362): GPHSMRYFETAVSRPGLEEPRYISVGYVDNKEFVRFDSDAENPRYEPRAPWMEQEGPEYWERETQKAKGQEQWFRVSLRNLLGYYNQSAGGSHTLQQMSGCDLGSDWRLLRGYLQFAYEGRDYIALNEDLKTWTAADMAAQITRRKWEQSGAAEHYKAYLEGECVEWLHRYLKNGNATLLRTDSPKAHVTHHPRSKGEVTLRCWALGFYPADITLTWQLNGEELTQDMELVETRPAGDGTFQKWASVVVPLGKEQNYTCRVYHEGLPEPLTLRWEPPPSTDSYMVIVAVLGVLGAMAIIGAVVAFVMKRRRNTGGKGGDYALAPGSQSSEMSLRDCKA
T2 sequence (P01887 21-119 partner): T1 sequence (P01887 21-119 partner)

TC-1 tumor = assay: TC-1 HPV-positive tumor growth in treated mice; assay type: in vivo, C57BL/6 mice; conditions: formulated in the DOTAP/antigen complex; FIG. 11
CD8+ T cells = assay: IFN-γ producing CD8+ T cells in spleen after immunization; assay type: in vivo, mice; conditions: formulated in DOTAP liposomes; 5 nmol peptide; FIG. 12
[4] = E7 peptide association with the liposome; assay type: physicochemical; conditions: 0.7 mg lipids and 0.1 mg E7 per mL (molar ratio=11:1)
Method: All lipids were purchased from Avanti Polar Lipids (Alabaster Ala.). Small unilamellar DOTAP, DOEPC, and DOTMA liposomes were prepared by thin film hydration followed by extrusion. The lipid, with or without a drug, in chloroform was dried as a thin layer under a stream of nitrogen in a glass tube. The thin film was vacuum desiccated for 2-3 h and then re-hydrated in cell culture grade water (commercially available from Cambrex of Walkersville, Md.) or buffer containing E7 peptide to a final concentration of 0.7 mg lipids and 0.1 mg E7 per mL (molar ratio=11:1). The lipid dispersion was sequentially extruded through polycarbonate membranes with pore size of 0.4, 0.2 and 0.1 μm. The un-entrapped peptide was not removed. The liposomes were stored at 4° C. until use. E7 peptide association with the liposome was determined by measuring the percentage of liposome-bound peptide. In brief, unbound E7 peptide from DOTAP/E7 or DOTAP/E7/drug (MAP kinase inhibitor) complexes was separated by a Microcon® centrifugal filtrate devices (Millipore, Bedford, Mass.) and the concentration of unbound peptide was measured by Micro BC™ Protein Assay Kit (Pierce, Rockford, Ill. The efficiency of peptide association was determined as percent […] peptide. Approximately 30% of E7 peptide was associated with the liposomes.

KSS-E7: E7 peptide RAHYNIVTF elongated with KSS (lysine-serine-serine) spacer, no lipid (not fully specified (N-terminus); also: KSS spacer added, end not given here)
Entrapment efficiency (%) [1]: 26.4 ± 6.1% | Up-regulation of H-2K^b molecules [2]: No up-regulation | Up-regulation of H-2D^b molecules (mean fluorescence) compared to the control [3]: 8 fold | Anti-tumor activity compared with native E7 (TC-1 tumor): superior anti-tumor activity | Number of IFN-γ producing CD8+ cells vs native E7 in DOTAP liposomes (CD8+ T cells): superior result than the native E7

RAHYNIVTF [Native E7]
Entrapment efficiency (%) [1]: 27.1 ± 5.8% | Entrapment efficiency (%) ([1]; listed as E7): about 25% | Up-regulation of H-2K^b molecules [2]: No up-regulation | Up-regulation of H-2D^b molecules (mean fluorescence) compared to the control [3]: four-fold | E7 peptide associated with the liposomes [4]: Approximately 30%
